What was measured:
[1] = molecular target: monomeric properdin lacking TSR domains 2 and 3 (FPΔ2,3) (human) (UniProt P27918); experiment: SEC-MALS; FPΔ2,3 with added CirpA1; S200 10/300 column in PBS, 100 uL at 1 mg/mL
[2] = molecular target: properdin from human serum (human) (UniProt P27918)
[3] = molecular target: monomeric properdin lacking TSR domains 2 and 3 (FPΔ2,3) (human) (UniProt P27918); experiment: MST; RED-NHS labelled FPΔ2,3 constant at 50 nM, CirpA1 2 nM to 64 uM; PBS, 0.05% Tween-20, pH 7.4; Monolith NT.115
[4] = molecular target: properdin from human serum (human) (UniProt P27918); remark: listed apart in the source

Sequence of UniProt P27918 (P27918 28-469): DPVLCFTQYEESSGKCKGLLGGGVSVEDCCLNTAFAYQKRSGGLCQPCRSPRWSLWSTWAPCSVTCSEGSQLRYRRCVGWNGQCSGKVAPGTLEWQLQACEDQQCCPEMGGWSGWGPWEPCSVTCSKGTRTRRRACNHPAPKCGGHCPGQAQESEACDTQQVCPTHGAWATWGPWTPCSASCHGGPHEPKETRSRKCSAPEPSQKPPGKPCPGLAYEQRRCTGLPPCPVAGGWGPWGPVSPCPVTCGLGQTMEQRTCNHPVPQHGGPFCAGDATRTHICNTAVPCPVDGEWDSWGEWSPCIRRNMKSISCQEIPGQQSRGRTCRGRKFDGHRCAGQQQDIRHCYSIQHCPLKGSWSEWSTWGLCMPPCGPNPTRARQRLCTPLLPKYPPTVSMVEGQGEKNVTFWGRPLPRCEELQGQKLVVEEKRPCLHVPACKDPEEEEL

“CirpA1 (Complement inhibitor from R. pulchellus of the alternative pathway 1), refolded (natural protein)” showed a stoichiometry N [1] of 1.

With “CirpA1, recombinant, preparation not stated for the experiment (natural protein)” the AP haemolysis assay, human serum, rabbit erythrocytes; CirpA1 purified from insect cells [2] was 1.41e-08, the Kd [3] was 97 nM and the inhibition of the alternative pathway (MAC formation), WIESLAB assay, human serum [4] was 13 nM.

Work on CirpA6 (natural protein) yielded an AP haemolysis assay, human serum, rabbit erythrocytes [2] of 1.4e-08.
